Measurements taken from paper PMC9064986.

Columns and labels:
[1] = target: T1, Recombinant human BMP10 growth factor (GF)-domain (R&D Systems), O95393; test: SPR (Biacore); conditions: chain shown with the change, BMP10 immobilised on a CM5 Biacore chip
T1 chain: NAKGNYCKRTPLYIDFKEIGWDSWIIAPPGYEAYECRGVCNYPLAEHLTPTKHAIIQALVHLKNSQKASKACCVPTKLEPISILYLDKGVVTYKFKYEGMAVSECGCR

[2] = target: T2, BMP10 growth factor (GF)-domain from Pro:BMP10 made in HEK EBNA cells, O95393; test: ELISA (prodomain displacement); conditions: chain shown with the change; BMPRII ECD at 125x excess over Pro:BMP10; lower reading = more prodomain displaced; parent: est. 0.42; read off a plot
T2 chain: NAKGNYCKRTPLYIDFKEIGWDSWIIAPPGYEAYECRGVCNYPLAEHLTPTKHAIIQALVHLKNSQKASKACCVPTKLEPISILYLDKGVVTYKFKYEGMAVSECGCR

[3] = target: T2, BMP10 growth factor (GF)-domain from …; test: native PAGE prodomain displacement (densitometry); conditions: chain shown with the change, lower ratio = more prodomain displaced, read off a plot

B1: BMPRII extracellular domain (ECD), wild type, Q13873-1 ΔGDP (del of Gly, Asp and Pro in the A-loop) (protein)
chain: SQNQERLCAFKDPYQQDLGIGESRISHENGTILCSKGSTCYGLWEKSKGDINLVKQGCWSHIQECHYEECVVTTTPPSIQNGTYRFCCCSTDLCNVNFTENFPPPDTTPLSPPHSFNRDET
With B1 the Kd ([1]; parent: 1.19E-06 M) was 1170 nM, the koff ([1]; parent: 1.61E-01 s-1) was 0.0583 s⁻¹ and the other: OD reading, normalized to no BMPRII control [2] was 0.62. For the same binder, the other: Pro:BMP10/prodomain ratio, normalized to no BMPRII control ([3]; BMPRII ECD at 2-fold excess (2x) over Pro:BMP10, parent: est. 0.59) was 0.94 and the other: Pro:BMP10/prodomain ratio, normalized to no BMPRII control ([3]; BMPRII ECD at 5-fold excess (5x) over Pro:BMP10, parent: est. 0.46) was 0.74.
